Test results taken from US20090068110A1, “ANTIBODIES TO INSULIN-LIKE GROWTH FACTOR RECEPTOR” (Genentech, Inc., priority 2006, published 2009).

B1: 9F2: mouse monoclonal anti-IGF-1R antibody from hybridoma 9F2.6.2, ATCC PTA-7018 (antibody, V domains shown)
VH: QIQLVQSGPELKKPGETVKISCKASGYTLANYGMNWVKQAPGKGFKWMGWINTNTGKPTYSDEFKGRFVFSLETSASTAYLLINNLSNEDTATYFCARSIYYYGSRYFNVWGAGTT
VL: DIQMTQSTSSLSASLGDRVTISCRASQDINNYLTWYQQKPDGTVKLLIYYTSRLHSGVPSRFSGSGSGTDYSLTITNLEQEDFATYFCQQGNTLPWTFGEGTKVEIKR
B2: 10H5: mouse monoclonal anti-IGF-1R antibody from hybridoma 10H5.3.4, ATCC PTA-7007 (antibody, V domains shown)
VH: QVQLQQPGAELVKPGASVTLSCKASGYTFTRFWIHWVKQRPGQGLEWIGEINPSNGRTNYNENFKNKATLTVDTSSSTAYMQLSSLTSEVSVVYYCARGGRLDQWGQGTT
VL: DIVMTQSQKFMSTSLGDRVSVTCKASQNVGSNVAWYQQKPGQSPEALIYSASYRYSGVPDRFTGSGSGTDFTLTISNVQSEDLAEYFCHQYNNYPYTFGGGTKVEIKR

Experiments:
[1] = tested on: MCF7 cells; test: cell viability assay ([…]-GLO), MCF7; format: cell-based, human; design: key to Effect of IR3, 6D2, 9F2, and 10H5: +: growth inhibition; −: no or weak effect; conditions: MCF7, Breast Adenocarcinoma
Method: (§1) The different cell lines were cultured in their respective culture media at 37° C. in a humidified atmosphere of 5% CO2. Subsequently, cells were detached from tissue-culture flasks using the cell-dissociation solution, TRIPLE SELECT™ solution (InVitrogen, Carlsbad, Calif., USA), and centrifuged at 1000 rpm for five minutes. Detached cells were washed once with PBS, counted, and seeded in 96-well plates (Corning, N.Y., USA) at 2000 cells per well in 100 μL of culture media. After an overnight incubation at 37° C. in a humidified atmosphere of 5% CO2, the cell-culture medium was replaced with 50 μL of starvation medium consisting of serum-free RPMI 1640™ medium without phenol red. The cells were then starved for five hours in the incubator before addition of 25 μL of each anti-IGF-1R monoclonal antibody at various dilutions in serum-free RPMI 1640™ phenol red-free media. Later, 25 μL of phenol red-free RPMI 1640™ media supplemented with 4% of fetal bovine serum (FBS) (Sigma) with or without 4 ng/ml of human recombinant IGF-I were added on top of the 50 μL of antibody. The cells were then placed at 37° C. with 5% CO2 for 5 to 6 days. At the end of the assay, cell viability was measured using the […]-GLO® kit according to the manufacturer's instructions (Promega, Madison, Wis., USA).
For the cell viability assay, MCF7 cells were seeded onto 96-well plates at 2000 cells/well and incubated overnight at 37° C. in a humidified atmosphere of 5% CO2/95% air in RPMI 1640™ medium supplemented with 10% FBS (Sigma, St. Louis, Mo.) and 1% GLUTAMAX™ reagent (Promega, Madison, Wis.). The next day cells were starved in serum-free RPMI 1640™ medium (phenol red-free) for five hours followed by addition of serially diluted human chimeric versions of 9F2, 2B4, and 10H5, as well as h10H5.vX, for one hour. Subsequently, phenol red-free PRMI 1640™ medium supplemented with FBS or IGF-I was added to reach a final concentration of 1% FBS and 1 ng/mL IGF-I. Cells were then incubated with continuous IGF-1R antibody exposure. After five days, the cell viability was then determined using a […]-GLO™ kit (Promega, Madison, Wis.) according to the manufacturer's instructions.

[2] = tested on: KM12; test: cell viability assay, KM12; format: cell-based, human; design: key: +: growth inhibition; −: no or weak effect; conditions: KM12, Colorectal Adenocarcinoma
Method: as §1

[3] = tested on: SJCRH30; test: cell viability assay, SJCRH30; format: cell-based, human; design: key: +: growth inhibition; −: no or weak effect; conditions: SJCRH30, Rhabdomyosarcoma
Method: as §1

[4] = tested on: DU145; test: cell viability assay, DU145; format: cell-based, human; design: key: +: growth inhibition; −: no or weak effect; conditions: DU145, Prostate Adenocarcinoma
Method: as §1

[5] = tested on: DLD1; test: cell viability assay, DLD1; format: cell-based, human; design: key: +: growth inhibition; −: no or weak effect; conditions: DLD1, Colorectal Adenocarcinoma
Method: as §1

[6] = molecular target: T1, murine IGF-1R (Mus musculus, UniProt Q60751); test: BIACORE surface-plasmon resonance, murine IGF-1R; format: binding
T1 construct: evaluated against human and murine IGF-1R-ECD
Method: Before HVR grafting, murine 2B4, 9F2, and 10H5Fab binding affinities were evaluated against human and murine IGF-1R-ECD using BIACORE™ instrument analysis. The procedure used was that for BIACORE™ instrument analyses generally, wherein the analyte was anti-IGF-1R Fab (500 nM-[…]; two-fold serial dilution), the ligand was IGF-1R (about 500 RU)-coated CM5 sensor chip, and the temperature was 25° C.
Binding affinities of selected antibodies to IGF-1R were determined by surface plasmon resonance measurements on a BIACORE™ 3000 instrument (BIAcore, Inc.). Human, murine, or cynomolgus-monkey IGF-1R was immobilized at a density of about 500 RU on the flow cells of a PIONEER™ CM5 sensor chip. Immobilization was achieved by random coupling through amino groups using a protocol provided by the manufacturer. Sensorgrams were recorded for binding of anti-IGF-1R Fab or IgG to these surfaces by injection of a series of solutions ranging from 500 nM to 3.1 nM and 250 nM to 0.78 nM in two-fold increments, respectively. The signal from the reference cell was subtracted from the observed sensorgram. Kinetic constants were calculated by non-linear regression analysis of the data according to a 1:1 Languir binding model using software supplied by the manufacturer.

[7] = molecular target: T2, human IGF-1R-ECD (Homo sapiens, UniProt P08069); test: competitive ELISA, blocking of IGF-I/II and IGF-1R interaction; format: binding; conditions: antibody 100 nM to 0.0976 nM, biotinyl-IGF-I or IGF-II 60 ng/ml
T2 construct: containing the extracellular domain (ECD, amino acids 1-902) tagged with 10 or 12 histidine residues at the carboxyl terminus; His10 or His12 (C); made in house; host or cells: CHO cells
Method: To determine whether the anti-IGF-1R antibodies could block ligand/receptor interaction, competitive ELISA was utilized. Human IGF-1R-ECD was coated overnight at 4° C. at 1 μg/ml in a 96-well immunoplate (Nalge Nunc International, Rochester, N.Y., USA). The ELISA plate was washed with wash buffer (PBS, 0.05% TWEEN™ 20 surfactant, pH 7.4), and 150 μl/well of blocking buffer (PBS with 0.5% BSA) was added for one hour at room temperature with gentle agitation. Purified anti-IGF-1R antibodies were first subjected to a two-fold dilution from 100 nM to 0.0976 nM in assay buffer (PBS, 0.5% BSA and 0.05% TWEEN™ 20 surfactant, pH 7.4) and added to the immunoplate to incubate at room temperature for one hour. Biothinyl-IGF-I or IGF-II at 60 ng/ml concentrations (Cell Science, Canton, Mass., USA) was then added and incubated for another 30 minutes. The ELISA plate was washed three times, and 100 μl/well of streptavidin-HRP (GE Healthcare, Piscataway, N.J., USA) at a dilution of 1:6,000 was added for 20 minutes. Color development was conducted as described in conjunction with the direct ELISA. The selected anti-IGF-1R antibodies inhibited IGF-I or IGF-II binding to IGF-1R to various degrees (FIGS. 19A and 19B for IGF-I and IGF-II, respectively).

T1 sequence (Q60751 31-737 limits assumed): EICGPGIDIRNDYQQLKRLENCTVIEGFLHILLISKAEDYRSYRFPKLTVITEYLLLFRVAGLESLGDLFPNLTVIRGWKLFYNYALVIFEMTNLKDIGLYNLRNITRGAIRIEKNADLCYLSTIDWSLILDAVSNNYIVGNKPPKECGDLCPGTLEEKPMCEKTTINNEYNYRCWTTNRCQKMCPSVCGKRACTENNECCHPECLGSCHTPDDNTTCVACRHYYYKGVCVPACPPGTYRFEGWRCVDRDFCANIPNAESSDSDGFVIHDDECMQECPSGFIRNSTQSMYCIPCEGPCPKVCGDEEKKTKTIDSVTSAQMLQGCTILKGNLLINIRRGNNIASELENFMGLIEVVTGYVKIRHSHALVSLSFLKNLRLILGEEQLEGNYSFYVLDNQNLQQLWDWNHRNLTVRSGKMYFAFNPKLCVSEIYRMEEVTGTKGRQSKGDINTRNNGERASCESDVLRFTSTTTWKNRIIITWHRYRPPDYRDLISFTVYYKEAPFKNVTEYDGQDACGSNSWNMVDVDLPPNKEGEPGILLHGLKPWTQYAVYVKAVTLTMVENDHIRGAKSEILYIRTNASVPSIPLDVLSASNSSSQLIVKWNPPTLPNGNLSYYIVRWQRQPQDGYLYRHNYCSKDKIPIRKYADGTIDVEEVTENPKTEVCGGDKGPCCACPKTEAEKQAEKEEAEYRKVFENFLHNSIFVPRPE
T1 sequence (Q60751 742-936 limits assumed): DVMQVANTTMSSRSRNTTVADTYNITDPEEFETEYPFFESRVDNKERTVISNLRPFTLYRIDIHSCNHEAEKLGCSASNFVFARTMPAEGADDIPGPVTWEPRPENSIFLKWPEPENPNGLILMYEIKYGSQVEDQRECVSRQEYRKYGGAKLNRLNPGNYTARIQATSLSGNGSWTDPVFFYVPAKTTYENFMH

Molecule | Effect of IR3, 6D2, 9F2, and 10H5 [1] | Effect of IR3, 6D2, 9F2, and 10H5 [2] | Effect of IR3, 6D2, 9F2, and 10H5 [3] | Effect of IR3, 6D2, 9F2, and 10H5 [4] | Effect of IR3, 6D2, 9F2, and 10H5 [5] | binding to mouse IGF-1R [6] | inhibition of IGF-I or IGF-II binding to IGF-1R [7]
B1 | + | − | + | − | − | not to mouse IGF-1R or human insulin receptor | most potent group
B2 | + | − | + | − | − | not to mouse IGF-1R or human insulin receptor | most potent group
